Assay results taken from the nanobody polyreactivity screen of Harvey et al. (2022).

Assay: yeast display, Sf9 membrane polyspecificity reagent, FACS + sequencing; frameworks hold sequencing errors
In short: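 A nanobody's polyreactivity label depends on the gate it was sorted from. Yeast display cells were stained with 10% biotinylated, detergent-solubilized Sf9 membrane reagent for 1 hour at 4 °C, enriched on streptavidin microbeads and sorted by FACS. The low and high (top ~1%) gates were set on anti-HA fluorescence for expression and streptavidin fluorescence for reagent binding.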

Sequence	polyreactivity (PSR sort gate)
QVQLVESGGGLVQAGGSLRLSCAASGSISTWYAMGWYRQATGKERELVAAINSGDSTYYADSVKGRFTISRDNAKNTVYLQMNSLKPEDTAVYYCAASSYSSKPFDYWGQGTQVTVSS	high polyreactivity
QVQLVESGGGLVQAGGSLRLSCAASGSISTYYAMGWYRQAPGKERELVAAISKSGGSTYYADSVKGRFTISRDNAKYTVYLQMNSLKPEDTEVYYCAARYKGRAFWMDYWGQGTQVTVSS	high polyreactivity
QVQLVESGGGLVQAGGSLRLSCAASGSISVWYVMGWYRQAPGKERELVAAITRSGGSTFYADSVKGRFTISRDNAKNTVYLQMNSLKPEDTAVYYCAADGGVAWGYGYWGQGTQVTVSS	low polyreactivity
QVQLVESGGGLVQAGGSLRLSCAASGSISVYNAMGWYRQAPGTERELVAAISWSGGRTSYADSVKGRFTISRDNAKNTVYLQMNSLKPEDTAVYYCAADELTVLWDEDYWGQGTQVTVSS	low polyreactivity
QVQLVESGGGLVQAGGSLRLSCAASGSISWLYAMGWYRQAPGKEREFVAAISESGDTYYADSVKGRFTISRDNAKNTVYLQMNSLKPEDTAVYYCAATRPDGVTYDYWGQGTQVTVSS	low polyreactivity
QVQLVESGGGLVQAGGSLRLSCAASGSISWVYAMGWYRQAPGKERELVADITDSGDSTYYADSVKGRFTISRDNAKNTVYLQMNSLKPEDTAVYYCAADGWRHYYIYWPYNYWGQGTQVTVSS	low polyreactivity
QVQLVESGGGLVQAGGSLRLSCAASGSISYPKAMGWYRQAPGKERELVAAINSGDRTNYADSVKGRFTISRDNAKNTVYLQMNSLKPEDTAVYYCARRRYFLWGGYGYWGQGTQVTVSS	low polyreactivity
QVQLVESGGGLVQAGGSLRLSCAASGSIVAWYGMGWYRQAPGKERELVAAISTAGSTNYADSVKGRFTISRDNAKNTVYLQMYSLKPEDTAVHYCAKKSSWYYPERFDYWGQGTQVTVSS	low polyreactivity
QVQLVESGGGLVQAGGSLRLSCAASGSIVDYNAMGWYRQPPGKERELVAAISSGGSTYYADSVKGRFTISRDNAKNTVYLQMNSLKPEDTAVYYCAVKFWLVIQFDYWGQGTQVTVSS	low polyreactivity
QVQLVESGGGLVQAGGSLRLSCAASGSIVENMGWYRQAPGKERELVAAISSSGDSTYYADSVKGRFTISRDNAKNTVYLQMNSLKPEDTAVYYCAADFYYYKKQYDYWGQGTQVTVSS	low polyreactivity
QVQLVESGGGLVQAGGSLRLSCAASGSIVGYYAMGWYRQAPGKEREFVARISSSTDSTYYADSVKGRFTISRDNAKKTVYLQMNSLKPEDTAVYYCNADDTWYYGYWGQGTQVTVSS	low polyreactivity
QVQLVESGGGLVQAGGSLRLSCAASGSIVRYYAMGWYSQAPGKERELVAAISYRGGTTYYADSVKGRFTISRDNAKNTVYLQMNSLKPEDTAVYYCAAGYKAAGWTQYGYWGQGTPVTVSS	high polyreactivity
QVQLVESGGGLVQAGGSLRLSCAASGSIVSGYAMGCYRQARGKERELVDAITRSGGRTYYADSVKGRFTISRDNAKNTVYLQMNSLKPEDTAVYYCAARGGPGDDYWGQGTQETVSS	high polyreactivity
QVQLVESGGGLVQAGGSLRLSCAASGSIVVGYAMGWYRQAPGKERELVAAITGSGTRTYYADSVKGRFTISRDNAKNTVYLQMNSLKPEDTAVYYCAAPLSYKNVKYDYWGQGTQVTVSS	low polyreactivity
QVQLVESGGGLVQAGGSLRLSCAASGSIVVRNAMGWYRQAPGKERELVAAITYRGGSTYYADSVKGRFTISRDNAKNTVYLQMNSLNPEDTAVYYCFDVNTDVLSRVYRGWGYYYWGQGTQVTVSS	low polyreactivity
QVQLVESGGGLVQAGGSLRLSCAASGSIYASNTMGWYRQAPGKERELVAGITKIGSSTYYADSVKGRFTISRDNAKNTVYLQMNSLKPEDTAVYYCNAYGPNIYSSRYDYWGQGTQVTVSS	low polyreactivity
QVQLVESGGGLVQAGGSLRLSCAASGSIYAYYAMGWYRQAPGKERELVATISGGGVGTYYADSVKGRFTISRDNAKNSVYLQMNSLKPEDTAVYYCAADGAQAVIYGDRIEMDYWGQGTQVTVSS	low polyreactivity
QVQLVESGGGLVQAGGSLRLSCAASGSIYDRYVMGWYRQAPGKERELVAAISKSGGNTYYADSVKGRFTISRDNAKNTVYLQMNSLKPEDTAVYYCNARSGRYYLGYGYWGQGTQVTVSS	high polyreactivity
QVQLVESGGGLVQAGGSLRLSCAASGSIYEYYVMGWYRHAPGKERELVAAISYSGDSTYYADSVKGRFTISRDNAKNTVYFQMNSLKPEDTAVYYCAAQYSRVIPPGYDYWGQGSQVTVSS	high polyreactivity
QVQLVESGGGLVQAGGSLRLSCAASGSIYGLYAMGWYRQAPGKERELVATITSGSSTNYADSVKGRFTISRDNAKNTVYLQMNSLKPEDTAVYYCAVDDLYGFDYWGQCTQVTVSS	low polyreactivity
QVQLVESGGGLVQAGGSLRLSCAASGSIYKYYAMGWYRQAPGKERELVAALTIGGITNYADSVKGGFTISRDNATNTVYLQMTSLKPEDPAVYYCATGVYYSAIVYGGYDYWGQGTQVTVSS	low polyreactivity

Sequence	polyreactivity (PSR sort gate)
QVQLVESGGGLVQAGGSLRLSCAASGSIYLNYAMGWYRQAPGKERELVAGISNGGSTNYADSVKGRFTISRDNAKNTVYLQMKSLIPEDTAVYYCARPAYKSRGKRFDYWGQGTQVTVSS	low polyreactivity
QVQLVESGGGLVQAGGSLRLSCAASGSIYRDALGWYRQAPGKERELVAAINFNGGRTYYADSVKGRFTISRDNAKNTVYLQMNSLKPEDTAVYYCAAVRSSNQGGFDYWGQGTQVTVSS	high polyreactivity
QVQLVESGGGLVQAGGSLRLSCAASGSIYRDYTMGWYRQAPGKERELVAISWSSGGTNYADSVKGRFTISRDNAKNTVYLQMNSLKPEDTAVYYCAADRSTGLGDDDYWGQGTQVTVSS	low polyreactivity
QVQLVESGGGLVQAGGSLRLSCAASGSIYRRYAMGWYRQAPGKERELVAAINQSGGRTYYADSVKGRFTISRDNAKNTVYLQMNSLKPEDTAVYYCAARYYGRVGGDSIGYNYWGQGTQVTVSS	high polyreactivity
QVQLVESGGGLVQAGGSLRLSCAASGSIYRYAMGWYRQAPGKEREFVAAITWNGGSTYYADSVKGRFTISRDNAKNTVYLQMNSLKPEDTAVYSCAAYEKRLGYDYWGQGTQVTVSS	high polyreactivity
QVQLVESGGGLVQAGGSLRLSCAASGSIYRYYPMGWYRQAPGKEREFVAAITYSDSDTYYADSVKGRFTISRDNAKNTVYLQMNRLKPEDTAVYYCAARFRRTRVTYYYWGQGTQVTVSS	high polyreactivity
QVQLVESGGGLVQAGGSLRLSCAASGSIYSINAMGWYRQAPGKERELVAAISWSGGSTYYADSVKGRFTISRDNAKNTVYLQMNSLKPEDTAVYYCNAEEDEYGELDYWGQGTQVTVSS	low polyreactivity
QVQLVESGGGLVQAGGSLRLSCAASGSIYSSYAMGWYRQAPGKERELVAAISSSGDSTYADSVKGRFTISRDNAKNTVYLQMNSLKPEDTAVYYCAVGGAGSDDYWGQGTQVTVSS	low polyreactivity
QVQLVESGGGLVQAGGSLRLSCAASGSIYWRYAMGWYRQAPGKEMELVASITSGGGSTYYADSVKGRFTISRDNAKNTVYLQMNSLKPEDTAVYYCAAERYYSEAIFRSYDYWGQGTQVTLSS	low polyreactivity
QVQLVESGGGLVQAGGSLRLSCAASGSIYYPYAMGRYRQAPGKERELVAAITTGGSTYYADSVKGRFTISRDNAKNTVYLQMNSLKPEDTAVYYGNKGSFPYTSKAYSYSLGGDDYWGQGTQVTVSS	low polyreactivity
QVQLVESGGGLVQAGGSLRLSCAASGSIYYQYAMGWYRQAPGKERELVAAITYGGGSTYYADSVKGRFTISRDNAKNTVYLQMISLKPEDTAVYYCAKDLYHTVGRYDYWGQGTQVTVSS	low polyreactivity
QVQLVESGGGLVQAGGSLRLSCAASGSLFGSYAMGWYRQAPGKEREIVASISNSGGSTYYADSVKGRFTISRDNAKNTVYLQMNSLKPEDTAVYYCAAAVYSYTYRYYYWGQGTQVTVSS	high polyreactivity
QVQLVESGGGLVQAGGSLRLSCAASGSLFNRNVMGWYRQAPGKERELVAAMTRGGRTSYADSVKGRFTISRDNAKNTVYLQMNSLKPEDTAGYYCAARRGYWVDYWGQGTQVTVSS	high polyreactivity
QVQLVESGGGLVQAGGSLRLSCAASGSLFSAYAMGWYRQAPGKEREFVAAITRRGGNTYYADSVKGRYTISRDNAKNTVYLQMNSLKPDDTAVYYCAADAGGGPFDYCGQGTQVTVSS	low polyreactivity
QVQLVESGGGLVQAGGSLRLSCAASGSMFFWYVMGWYRQAPGKERELVASISSGGSTYYADSVKGRFTISRDNAKNTVYLQMNSLKPEDTAVYYCNAKSWSPAKSFSFFRFDYWGQGTQETVSS	low polyreactivity
QVQLVESGGGLVQAGGSLRLSCAASGSMFTGYDMGWYRQAPGKERELVAAITASGSGTYYADSVKGRFTISRDNAKNTVYLQMNSLKPEDTAVYYGNAPYLFYRGDSDHYYYNEGGYWGQGTQVTVSS	high polyreactivity
QVQLVESGGGLVQAGGSLRLSCAASGSMSYGYGMGWYRQAPGKEREVVATISGRAGSTYYADSVKGRFTISRDNAKNTVYLQINSLQPEDTAVYYCAAKWWRLTWTAGYGGRGYGYWGQGTQVTVSS	low polyreactivity
QVQLVESGGGLVQAGGSLRLSCAASGSNAMGCYRPAPGKDSELVAVITSRGGSTYYADSVKGRFTISRDNAKNTVYLQMNSLKPEDTAVYYCAKAWYVRGTWSVHVRYGYWGQGTQVTVSS	high polyreactivity
QVQLVESGGGLVQAGGSLRLSCAASGSNFAINAMGWYRQAPGKERELVAAIRYSTGRTYYADSVKGRFTISRDNAKNTVYLQMNSLKPEDTAVYYCAALGFTKYGSRFDYWGQGTQVTVSS	high polyreactivity
QVQLVESGGGLVQAGGSLRLSCAASGSNFASYSMGWYRQSPGKERELVAAITDSGGSTYYADSVKGRLTSSRENGKNTVYLQMNSLKPEDTAVYYCAAYGPYFSYHDYVYWGQGTQVTVSS	low polyreactivity
